Test results reported in publication PMC5589264, “Reversible unfolding of infectious prion assemblies reveals the existence of an oligomeric elementary brick” (PLoS Pathogens, 2017).

Molecular target: the molecule itself
Experiment: SEC

B1: prion protein (PrP) from 263K-infected Syrian hamster brain (natural protein)
chain: not shown
notes: also called PrP^Sc; 263K PrP^Sc
Q: B1 was tested. Which “stoichiometry N” value did it give?
A: The value was about 3.
